Data set [1] in a line: ATPase activity at 0.05 ppm enzyme on 0.1 mM ATP (absorbance 620 nm). Format: biochemical. The conditions noted are these: for Activity on ATP (absorbance at 620 nm, blank subtracted), pH 5.0: 50 mM IVIES buffer pH 5; for Activity on ATP (absorbance at 620 nm, blank subtracted), pH 6.0: 50 mM IVIES buffer pH 6. As to the method:
Enzyme activity towards ATP or ADP at pH 3 to 9: The ability of candidate enzymes to degrade ATP or ADP to AMP and free phosphate (Pi) was measured using a standard malachite green phosphate detection kit (Sigma Aldrich cat no. MAK307). The enzyme reactions were carried out in 96-well plates with a total volume of 150 μL and contained 250 μM of a substrate, 50 mM of a buffer, 5 mM CaCl2, and a variable concentration of enzyme. The substrate was ATP or ADP. The buffer was glycine (pH 3), acetate (pH 4, 4.5, 5), bis-Tris (pH 5.5, 6, 6.5), or Tris (pH 7, 8, 9). The concentration of enzyme varied from about 1 μg/mL to 1 ng/mL and was adjusted based on the activity of the enzyme so that the amount of phosphate released during the assay was with the dynamic range of the assay (5-100 μM phosphate). The enzyme concentration was determined by the absorbance at 280 nm and using the predicted molecular weight and molar extinction coefficient to calculate the concentration. The enzyme reaction was initiated by the addition of 15 μL enzyme with 135 μL of the other reaction components such that the final reaction composition was as previously described. The reaction was stopped after 5 min by mixing 80 μL of the reaction mixture with 20 μL of the malachite green working reagent. The malachite green working reagent was prepared according to the manufacturer's protocol by mixing 100 parts reagent A with 1 part reagent B. Phosphate standard solutions (0-80 μM) and a negative control reaction without enzyme were also mixed with the malachite green working reagent. All samples were tested in duplicate. The malachite green reaction mixture was allowed to rest at room temperature for 45-60 min and the absorbance at 620 nm was measured. Lastly, the absorbance of the phosphate standards were used to convert the absorbance readings of each sample into phosphate concentrations and the negative control was subtracted from each reaction.
Enzymes of interest were assayed against ATP substrate. The ATPase activity was measured at 0.05 ppm concentration in 50 mM IVIES buffer pH 6 and pH 5 with 0.1 mM ATP as substrate as described in Example 1. Commercial potato apyrase was used as reference. The absorbance at 620 nm was measured and the absorbance of a blank sample (water) was subtracted from each sample.

The nature of data set [2]: pH profile of enzymes on 1 mM ATP. Format: biochemical. The conditions noted are these: 50 mM trisodium citrate/citric acid, 5 mM CaCl2, relative to the highest value. How it is done: The pH profile of additional enzymes of interest was assayed using 1 mM ATP, in 50 mM trisodium citrate/citric acid buffer with 5 mM CaCl2. Absorbance was read at 620 nm and all values were set relative to the highest one. Commercial potato apyrase was used as reference. […]

B1: CRC25099: Acid phosphatase (Class A), accession WP_195761705.1, SEQ ID NO:23 (protein, listed as Pantoea sp.)
chain: LQSSGFLTAETAPDSLAILPPPPAENSVTFQSDKAQYEAGHVLRNVARTELASKDADYKNFGQAFSAAFGMEISESHTPVLYHLLSEVLQDSHDFAMRGAKDHYKRVRPFVIYKDSTCTPDKDKSMSTTGSYPSGHASFGWAAALILAEINPSRETEIIRRGYDFGESRVVCGAHWQSDVENGRIMGATVVASLHANAKFAELLSQAKNEFATLSAQDSK
For the molecule B1, in data set [1], the “Activity on ATP (absorbance at 620 nm, blank subtracted), pH 5.0” value (“Activity on ATP … pH 5.0” for short) is reported as 1.05 and the “Activity on ATP (absorbance at 620 nm, blank subtracted), pH 6.0” value (“Activity on ATP … pH 6.0” for short) is 0.93. In data set [2], the “Relative activity on ATP, pH 3” value turned out to be 0.0; the “Relative activity on ATP, pH 3.5” value is 0.1; the “Relative activity on ATP, pH 4” value amounted to 0.3; the “Relative activity on ATP, pH 4.5” value came out at 0.7. Also, in data set [2], the “Relative activity on ATP, pH 5” value was 0.8; the “Relative activity on ATP, pH 5.5” value was 1.0; the “Relative activity on ATP, pH 6” value is reported as 0.8; the “Relative activity on ATP, pH 6.5” value came to 0.5.

B2: CRC25082: Acid phosphatase (Class A), accession WP_050460978.1, SEQ ID NO:19 (protein, listed as Herbaspirillum autotrophicum)
chain: KGAAGFLNGQTAPDSLAILPPPPAEDSVAFQADKAQYETGHVLRDPERVEQARQDADYRNFGHAFSAAFGMEISATHTPVLYQLLTEVLQDSHDYAMKAAKNHYKRVRPFVVYKDPTCTPGQDEKMALSGSYPSGHASFGWAAALVLAEINPARQTEILQRGYAFGKSRVICGAHWQSDVDNGQLMGAAVVAALHSNSQFAAALNAAKNEFAGLRAQDNKK
B2: in data set [1], the “Activity on ATP … pH 5.0” value stood at 0.93 and the “Activity on ATP … pH 6.0” value is on record as 0.65. In addition, in data set [2], the “Relative activity on ATP, pH 3” value came out at 0.0; the “Relative activity on ATP, pH 3.5” value is 0.0; the “Relative activity on ATP, pH 4” value came out at 0.0; the “Relative activity on ATP, pH 4.5” value was determined as 0.1. Besides, in data set [2], the “Relative activity on ATP, pH 5” value is 0.3; the “Relative activity on ATP, pH 5.5” value is 0.7; the “Relative activity on ATP, pH 6” value worked out at 1.0; the “Relative activity on ATP, pH 6.5” value was found to be 0.8.

B3: CRC25089: Acid phosphatase (Class A), accession WP_217352265.1, SEQ ID NO:22 (protein, listed as Paraburkholderia bonniea)
chain: AGSDGFLTAETAPSSLAILPPPPAENTVAFLNDKANYEIGRSLKNDARVALAASDANCKNINAIFSSAFGREISEEKTPKLYRLLLGVLQDSHDHAMKSAKNHYMRVRPFVMYGDKTCTPEEDNKMKNTGSYPSGHASFGWAAALVLSEINPERTTEILRRGYDFGQSRVVCGAHWQSDVDNGRLMGAAVVADLHNNDKFIKALEAAKAEFKENTPGN
In the case of B3, in data set [1], the “Activity on ATP … pH 5.0” value worked out at 0.24 and the “Activity on ATP … pH 6.0” value came to 0.05. In data set [2], the “Relative activity on ATP, pH 3” value worked out at 0.8; the “Relative activity on ATP, pH 3.5” value is recorded as 1.0; the “Relative activity on ATP, pH 4” value is given as 0.9; the “Relative activity on ATP, pH 4.5” value came to 0.9. Moreover, in data set [2], the “Relative activity on ATP, pH 5” value was determined as 0.8; the “Relative activity on ATP, pH 5.5” value was found to be 0.7; the “Relative activity on ATP, pH 6” value worked out at 0.3; the “Relative activity on ATP, pH 6.5” value came out at 0.2.

B4: CRC25100: Acid phosphatase (Class A), internal database, SEQ ID NO:24 (protein)
chain: GENSGFLSPETSPNSLEILPPPPSEGSIAFLNDKANYDIGHTLKNEGRLAQAVSDANYKNLTDAFSKAFGETISEQNTPALYSLLQNVLQDSHDFAMRAAKDHYKRVRPFVIYKDHTCTPAEDTKMAKTGSYPSGHASFGWATALVLSEINPARETEILKRGYEFGQSRVICGAHWQSDVDSGRIMGAAVVASLHNNSDFISALAKAKEEFRKK
modifications: environmental sample
Regarding B4, in data set [1], the “Activity on ATP … pH 5.0” value is 1.11 and the “Activity on ATP … pH 6.0” value is reported as 0.90. In data set [2], the “Relative activity on ATP, pH 3” value is reported as 0.0; the “Relative activity on ATP, pH 3.5” value came out at 0.0; the “Relative activity on ATP, pH 4” value was found to be 0.1; the “Relative activity on ATP, pH 4.5” value is on record as 0.4. In addition, in data set [2], the “Relative activity on ATP, pH 5” value amounted to 0.8; the “Relative activity on ATP, pH 5.5” value was 1.0; the “Relative activity on ATP, pH 6” value came to 1.0; the “Relative activity on ATP, pH 6.5” value was determined as 0.7.

B5: CRC22104: GDA1/CD39 family enzyme, accession TAL58835.1, SEQ ID NO:7 (protein, listed as Legionella sp.)
chain: IEQDPCQEKQCMIVVDAGSTGSRLHFYTYDTDETNSPINIEEIWSKRIKPGISHVEANRSSIDAYLVTLLAGTPHSNHVPVYFYATAGMRLLPAAKQKLIYQEIKFWFAQQNQWRLMDAKTIYGSQEALYDWLAVNHQLGTLQSVQTKSVGVMDMGGASVQIVFPVQNNPDLKNNTLAEFNLYGQHIRLAVRSFLGLGQTEMSHQFLNYAPCFANNYPLPDGFLGEGDALSCVEEVASLMNGVHSVNKEIQPLLAANPVNIWYAIGGLSFLADNSVIHFNNYQLTNEQLLQQVDSKICHQEWDVLDEQFPNEEYLYQFCLLSAYYYALMVEGYGLLPNETINYLPSSQNLDWTIGVVLYPRLTVLQ
As for B5, in data set [1], the “Activity on ATP … pH 5.0” value was 0.05 and the “Activity on ATP … pH 6.0” value amounted to 0.10. In addition, in data set [2], the “Relative activity on ATP, pH 3” value was 0.0; the “Relative activity on ATP, pH 3.5” value stood at 0.0; the “Relative activity on ATP, pH 4” value is given as 0.0; the “Relative activity on ATP, pH 4.5” value is on record as 0.3. In data set [2], the “Relative activity on ATP, pH 5” value was 0.8; the “Relative activity on ATP, pH 5.5” value turned out to be 0.9; the “Relative activity on ATP, pH 6” value worked out at 1.0; the “Relative activity on ATP, pH 6.5” value worked out at 1.0.

B6: CRC25085: Acid phosphatase (Class A), accession WP_092747651.1, SEQ ID NO:21 (protein, listed as Acinetobacter boissieri)
chain: LEQSNSFLQLAQVPDSLAIVPAPPAYNSVDFLRDKAAYDQAKSLVGTERWKVAAEDADLSDANIGKPFSQALGIEISPQNTPITYEILRKLRTDAGNYATKAAKEHYMRLRPFMFFNSHTCTPNDEANLSKNGAYPSGHTTIGWSSALVLAEIRPERQNEILQRGYEYGQSRVICGVHWQSDVDAGRITGSAIVARLHADKAFTKMLEEAKQEIQRKTK
For B6, in data set [1], the “Activity on ATP … pH 5.0” value is given as 0.23 and the “Activity on ATP … pH 6.0” value is 0.20. In data set [2], the “Relative activity on ATP, pH 3” value was 0.5; the “Relative activity on ATP, pH 3.5” value was 0.6; the “Relative activity on ATP, pH 4” value stood at 0.8; the “Relative activity on ATP, pH 4.5” value was 0.9. Also, in data set [2], the “Relative activity on ATP, pH 5” value is on record as 0.9; the “Relative activity on ATP, pH 5.5” value came out at 1.0; the “Relative activity on ATP, pH 6” value worked out at 0.8; the “Relative activity on ATP, pH 6.5” value worked out at 0.9.

B7: CRC25084: Acid phosphatase (Class A), accession WP_088823167.1, SEQ ID NO:20 (protein, listed as Acinetobacter apis)
chain: ADSNNSFLQLNQVPDSLKIVPAPPAFNSVDFLRDKAAYDQARSLVGTARWQQAAVDADLSDANIGKSFSEAFGVEISPTNTPVTYEILRKLRTDAGGYATKTAKEHYMRMRPFVFFNSHTCTPNDEASLSKNGAYPSGHTTIGWSSALILAEIRPDRQNEILERGYQYGQSRVICGVHWQSDVDAGRITGSAIVARLHADKDFAKTLEDAKREIQKKIK
On to B7, for which, in data set [1], the “Activity on ATP … pH 5.0” value is given as 0.20 and the “Activity on ATP … pH 6.0” value is 0.17. Also, in data set [2], the “Relative activity on ATP, pH 3” value is reported as 0.4; the “Relative activity on ATP, pH 3.5” value stood at 0.6; the “Relative activity on ATP, pH 4” value is 0.6; the “Relative activity on ATP, pH 4.5” value was determined as 0.9. Also, in data set [2], the “Relative activity on ATP, pH 5” value came to 0.9; the “Relative activity on ATP, pH 5.5” value is 1.0; the “Relative activity on ATP, pH 6” value is recorded as 1.0; the “Relative activity on ATP, pH 6.5” value is reported as 0.9.

Values taken from patent US20240124857A1, “COMPOSITION FOR GUT HEALTH” (DUPONT NUTRITION BIOSCIENCES APS, priority 2021, published 2024).
